In patent US20220160939A1, “SELF-ASSEMBLING PEPTIDES AS BRONCHIAL OBSTRUCTION AGENTS” (3-D MATRIX, LTD., priority 2014, published 2022):

Assays:
Type in all cases: physicochemical
[1] = Rheological properties of peptide solutions at adjusted salt ionic strength
Protocol: Based on the visual observation of the effect of salt ionic strength on the properties of the peptide solutions, the effect on the rheological properties of the peptide solutions after adjusting their ionic strength level with NaCl to 0.7 M (PuraMatrix® (SEQ ID NO:1)), 0.2 M (KLD12 (SEQ ID NO:3)) or 0.02 M (IEIK13 (SEQ ID NO:2)), which is closely below the critical ionic strength at which each peptide becomes cloudy, was evaluated. If the ionic strength levels with NaCl of peptide solutions are higher than 0.9 M (PuraMatrix® (SEQ ID NO:1)), 0.3 M (KLD12 (SEQ ID NO:3)) or 0.03 M (IEIK13 (SEQ ID NO:2)), the peptide solutions begin phase separation becoming cloudy and weak. The rheological property of PuraMatrix® (SEQ ID NO:1), KLD12 (SEQ ID NO:3) and IEIK13 (SEQ ID NO:2) solutions was higher after adjusting their ionic strength level with NaCl to 0.7 M (PuraMatrix® (SEQ ID NO:1)), 0.2 M (KLD12 (SEQ ID NO:3)) or 0.02 M (IEIK13 (SEQ ID NO:2)). The results are shown in FIG. 10 for KLD12 (SEQ ID NO:3) 1%, FIG. 11 for IEIK13 (SEQ ID NO:2) 1%, and FIG. 12 for PuraMatrix® (SEQ ID NO:1) 1%, respectively. Frequency sweep tests were performed from 1 rad/s to 10 rad/s at 1 Pa.
Based on the results of the effect on the rheological properties of the peptide solutions after adjusting their ionic strength level with NaCl to 0.7 M (PuraMatrix® (SEQ ID NO:1)), 0.2 M (KLD12 (SEQ ID NO:3)) or 0.02 M (IEIK13 (SEQ ID NO:2)), the effect on the rheological properties of the peptide solution at various salt ionic strengths was evaluated. […] The results are shown in FIG. 13 for PuraMatrix® (SEQ ID NO:1) 1% solutions and in FIG. 14 for IEIK13 (SEQ ID NO:2) 1% solutions. Frequency sweep tests were performed from 1 rad/sec to 10 rad/sec at 1 Pa and the storage modulus at 1 rad/sec was selected for data.
Based on the results of the effect on the rheological properties of the peptide solutions and hydrogels after adjusting their ionic strength levels with NaCl, the effect of various salts (KCl, MgCl2, and CaCl2) was also evaluated. The rheological property of PuraMatrix® (SEQ ID NO:1) solutions increases with ionic strength adjustment at 0.15 M of all the salts. Increases of the rheological property of PuraMatrix® (SEQ ID NO:1) solutions with various salts were not predominantly different. However, increases of the rheological property of PuraMatrix® (SEQ ID NO:1) solutions may vary depending on the salting out constant, K of each salt. Constant K is a constant in Cohen's equation: log S=B−KI, where S is solubility, B is idealized solubility, K is salting out constant, and I is ionic strength. With a higher value of constant K and ionic strength of salts, solubility of the peptide may decrease resulting in strong peptide self-assembly with increased hydrophobic effect and higher rheological properties of the peptide solution. The constant K of NaCl may be higher than the other salts. […] The results are shown in FIG. 17 for PuraMatrix® (SEQ ID NO:1) 1% solution before DMEM treatment, and in FIG. 18 for PuraMatrix® (SEQ ID NO:1) 1% hydrogels after DMEM treatment for 10 min Frequency sweep tests were performed from 1 rad/sec to 10 rad/sec at 1 Pa and the storage modulus at 1 rad/sec was selected for data.

[2] = Appearance of 1.5% peptide solutions with various salts at room temperature; details: for Appearance: room temperature
Protocol: The effect of salt ionic strength level on the properties of peptide solutions was evaluated to identify optimized salt ionic strength levels for the peptides as described herein. Increasing the salt ionic strength level of PuraMatrix® (SEQ ID NO:1) and other peptides may generally improve its function and mechanical strength for various clinical applications. To adjust the salt ionic strength of the peptide solutions by way of example, various salt buffer solutions including NaCl, KCl, MgCl2, CaCl2 and DPBS (10×) were added to 2 mL of 1.5% peptide solutions.

[3] = pH and appearance of 2.5% peptide solutions after adding 0.1 N NaOH
Protocol: To adjust the pH level of the peptide solutions by way of example, 0.1 N NaOH was added to 2 mL of 2.5% peptide solutions and their pH and appearance were measured.

For “Arg-Ala-Asp-Ala-Arg-Ala-Asp-Ala-Arg-Ala-Asp-Ala-Arg-Ala-Asp-Ala [PuraMatrix ®]”, the “rheological property of solutions with ionic strength adjustment” value ([1]; 0.15 M ionic strength of all the salts (NaCl, KCl, MgCl2, CaCl2), 1% solution) was “increases”, the “rheological property of solutions with NaCl versus KCl and CaCl2” value ([1]; 0.15 M ionic strength, 1% solution) was “slightly higher” and the “ionic strength up to which the rheological property of 1% solutions increases (decreases above)” value ([1]; 1% solutions, storage modulus at 1 rad/sec) was “up to 0.7 M”. For the same substance, the “ionic strength level with NaCl above which solutions begin phase separation becoming cloudy and weak” value ([1]; NaCl) was “higher than 0.9 M”, the “rheological property after adjusting ionic strength level with NaCl” value ([1]; NaCl to 0.7 M (PuraMatrix), 0.2 M (KLD12) or 0.02 M (IEIK13), 1% solutions) was “higher” and the “critical salt ionic strengths at which peptides become cloudy” value [2] was 0.9˜1.2 M. The Appearance ([2]; CaCl2 0 M, ionic strength 0 M, conc. 1.5%) was “Clear, thick gel”, the Appearance ([2]; CaCl2 0.05 M, ionic strength 0.15 M, conc. 1.48%) was “Clear, thick, stiffer gel” and the Appearance ([2]; CaCl2 0.1 M, ionic strength 0.3 M, conc. 1.45%) was “Clear, thick, stiffer gel”. The Appearance ([2]; CaCl2 0.15 M, ionic strength 0.45 M, conc. 1.43%) was “Clear, thick, stiffer gel”, the Appearance ([2]; CaCl2 0.2 M, ionic strength 0.6 M, conc. 1.4%) was “Clear, thick, stiffer gel” and the Appearance ([2]; CaCl2 0.25 M, ionic strength 0.75 M, conc. 1.38%) was “Clear, thick, stiffer gel”. The Appearance ([2]; CaCl2 0.3 M, ionic strength 0.9 M, conc. 1.35%) was “Clear, thick, stiffer gel”, the Appearance ([2]; CaCl2 0.35 M, ionic strength 1.05 M, conc. 1.32%) was “Clear, thick, stiffer gel” and the Appearance ([2]; CaCl2 0.383 M, ionic strength 1.15 M, conc. 1.31%) was “Clear, thick, stiffer gel”. For the same substance, the Appearance ([2]; CaCl2 0.4 M, ionic strength 1.2 M, conc. 1.3%) was “Slightly cloudy, thick, stiffer gel”, the Appearance ([2]; CaCl2 0.417 M, ionic strength 1.25 M, conc. 1.29%) was “Slightly cloudy, brittle gel” and the Appearance ([2]; CaCl2 0.433 M, ionic strength 1.3 M, conc. 1.28%) was “Cloudy, phase-separated”. The Appearance ([2]; DPBS (pH 3.2) 0 M, ionic strength 0 M, conc. 1.5%) was “Clear, thick gel”, the Appearance ([2]; DPBS (pH 3.2) 0.15 M, ionic strength 0.15 M, conc. 1.35%) was “Clear, thick, stiffer gel” and the Appearance ([2]; DPBS (pH 3.2) 0.3 M, ionic strength 0.3 M, conc. 1.2%) was “Clear, thick, stiffer gel”. The Appearance ([2]; DPBS (pH 3.2) 0.45 M, ionic strength 0.45 M, conc. 1.05%) was “Clear, thick, stiffer gel”, the Appearance ([2]; DPBS (pH 3.2) 0.6 M, ionic strength 0.6 M, conc. 0.9%) was “Clear, thick, stiffer gel” and the Appearance ([2]; DPBS (pH 3.2) 0.75 M, ionic strength 0.75 M, conc. 0.75%) was “Clear, thick, stiffer gel”. For the same substance, the Appearance ([2]; DPBS (pH 3.2) 0.9 M, ionic strength 0.9 M, conc. 0.6%) was “Clear, thick, stiffer gel”, the Appearance ([2]; DPBS (pH 3.2) 0.95 M, ionic strength 0.95 M, conc. 0.55%) was “Slightly cloudy, brittle gel” and the Appearance ([2]; DPBS (pH 3.2) 1.0 M, ionic strength 1.0 M, conc. 0.5%) was “Cloudy, phase-separated”. For the same substance, the Appearance ([2]; KCl 0 M, ionic strength 0 M, conc. 1.5%) was “Clear, thick gel”, the Appearance ([2]; KCl 0.15 M, ionic strength 0.15 M, conc. 1.43%) was “Clear, thick, stiffer gel” and the Appearance ([2]; KCl 0.3 M, ionic strength 0.3 M, conc. 1.35%) was “Clear, thick, stiffer gel”. The Appearance ([2]; KCl 0.45 M, ionic strength 0.45 M, conc. 1.27%) was “Clear, thick, stiffer gel”, the Appearance ([2]; KCl 0.6 M, ionic strength 0.6 M, conc. 1.2%) was “Clear, thick, stiffer gel” and the Appearance ([2]; KCl 0.75 M, ionic strength 0.75 M, conc. 1.13%) was “Clear, thick, stiffer gel”. For the same substance, the Appearance ([2]; KCl 0.9 M, ionic strength 0.9 M, conc. 1.05%) was “Clear, thick, stiffer gel”, the Appearance ([2]; KCl 0.95 M, ionic strength 0.95 M, conc. 1.03%) was “Clear, thick, stiffer gel” and the Appearance ([2]; KCl 1.0 M, ionic strength 1.0 M, conc. 1.0%) was “Clear, thick, stiffer gel”. The Appearance ([2]; KCl 1.05 M, ionic strength 1.05 M, conc. 0.98%) was “Slightly cloudy, thick, stiffer gel”, the Appearance ([2]; KCl 1.1 M, ionic strength 1.1 M, conc. 0.95%) was “Slightly cloudy, brittle gel” and the Appearance ([2]; KCl 1.15 M, ionic strength 1.15 M, conc. 0.93%) was “Cloudy, phase-separated”. For the same substance, the Appearance ([2]; MgCl2 0 M, ionic strength 0 M, conc. 1.5%) was “Clear, thick gel”, the Appearance ([2]; MgCl2 0.05 M, ionic strength 0.15 M, conc. 1.48%) was “Clear, thick, stiffer gel” and the Appearance ([2]; MgCl2 0.1 M, ionic strength 0.3 M, conc. 1.45%) was “Clear, thick, stiffer gel”. The Appearance ([2]; MgCl2 0.15 M, ionic strength 0.45 M, conc. 1.43%) was “Clear, thick, stiffer gel”, the Appearance ([2]; MgCl2 0.2 M, ionic strength 0.6 M, conc. 1.4%) was “Clear, thick, stiffer gel” and the Appearance ([2]; MgCl2 0.25 M, ionic strength 0.75 M, conc. 1.38%) was “Clear, thick, stiffer gel”. For the same substance, the Appearance ([2]; MgCl2 0.3 M, ionic strength 0.9 M, conc. 1.35%) was “Clear, thick, stiffer gel”, the Appearance ([2]; MgCl2 0.35 M, ionic strength 1.05 M, conc. 1.32%) was “Clear, thick, stiffer gel” and the Appearance ([2]; MgCl2 0.383 M, ionic strength 1.15 M, conc. 1.31%) was “Clear, thick, stiffer gel”. For the same substance, the Appearance ([2]; MgCl2 0.4 M, ionic strength 1.2 M, conc. 1.3%) was “Slightly cloudy, thick, stiffer gel”, the Appearance ([2]; MgCl2 0.417 M, ionic strength 1.25 M, conc. 1.29%) was “Slightly cloudy, brittle gel” and the Appearance ([2]; MgCl2 0.433 M, ionic strength 1.3 M, conc. 1.28%) was “Cloudy, phase-separated”. The Appearance ([2]; NaCl 0 M, ionic strength 0 M, conc. 1.5%) was “Clear, thick gel”, the Appearance ([2]; NaCl 0.15 M, ionic strength 0.15 M, conc. 1.43%) was “Clear, thick, stiffer gel” and the Appearance ([2]; NaCl 0.3 M, ionic strength 0.3 M, conc. 1.35%) was “Clear, thick, stiffer gel”. For the same substance, the Appearance ([2]; NaCl 0.45 M, ionic strength 0.45 M, conc. 1.27%) was “Clear, thick, stiffer gel”, the Appearance ([2]; NaCl 0.6 M, ionic strength 0.6 M, conc. 1.2%) was “Clear, thick, stiffer gel” and the Appearance ([2]; NaCl 0.75 M, ionic strength 0.75 M, conc. 1.13%) was “Clear, thick, stiffer gel”. For the same substance, the Appearance ([2]; NaCl 0.8 M, ionic strength 0.8 M, conc. 1.10%) was “Clear, thick, stiffer gel”, the Appearance ([2]; NaCl 0.85 M, ionic strength 0.85 M, conc. 1.08%) was “Clear, thick, stiffer gel” and the Appearance ([2]; NaCl 0.9 M, ionic strength 0.9 M, conc. 1.05%) was “Slightly cloudy, brittle gel”. The Appearance ([2]; NaCl 0.95 M, ionic strength 0.95 M, conc. 1.03%) was “Cloudy, phase-separated”, the Appearance ([2]; NaCl 1.0 M, ionic strength 1.0 M, conc. 1.0%) was “Cloudy, phase-separated” and the “salt ionic strength increase that did not change the clear color, while apparent stiffness increased” value ([2]; depending on different salts, 1.5% peptide solutions) was 0.85˜1.15 M. For the same substance, the Appearance ([3]; 0.1N NaOH 150 μL/mL added in 2.5% solution, conc. 2.17%) was “Clear, thick, stiffer gel”, the Appearance ([3]; 0.1N NaOH 200 μL/mL added in 2.5% solution, conc. 2.08%) was “Clear, thick, stiffer gel” and the Appearance ([3]; 0.1N NaOH 250 μL/mL added in 2.5% solution, conc. 2.0%) was “Clear, thick, stiffer gel”. The Appearance ([3]; 0.1N NaOH 275 μL/mL added in 2.5% solution, conc. 1.96%) was “Clear, thick, stiffer gel”, the Appearance ([3]; 0.1N NaOH 300 μL/mL added in 2.5% solution, conc. 1.92%) was “Slightly cloudy, brittle gel” and the Appearance ([3]; 0.1N NaOH 350 μL/mL added in 2.5% solution, conc. 1.85%) was “Cloudy, phase-separated”. For the same substance, the “Peptide solution pH” value ([3]; NaOH volume and conc. not given) was 7.0 and the Appearance ([3]; peptide solution pH 7.0, NaOH volume and conc. not given) was “Cloudy, phase-separated”.
